Source: publication PMC12416549 (2024)

T1: TNFR1 (Homo sapiens, UniProt P19438)
T1 chain: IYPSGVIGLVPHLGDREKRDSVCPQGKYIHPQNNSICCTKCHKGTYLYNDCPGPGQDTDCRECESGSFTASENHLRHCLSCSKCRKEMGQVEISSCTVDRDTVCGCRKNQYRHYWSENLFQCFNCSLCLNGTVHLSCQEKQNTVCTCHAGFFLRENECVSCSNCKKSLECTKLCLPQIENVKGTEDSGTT


Molecular target: T1, TNFR1
Experiment: yeast display SC50

apparent Kd (screen) [nM] | Binder
2.05 | A19L (designed binder) MTLQELLREEALRRAEAELFRYALELLAEKFPEQKEYLLDLAEEIESQIRSLSGVDVEDVRKFLDKEWAWVKELLAEHPAELAEVEAARAARLAELRAEVEAKVAA
2.25 | L41W (designed binder) MTLQELLREEALRRAEAEAFRYALELLAEKFPEQKEYLLDWAEEIESQIRSLSGVDVEDVRKFLDKEWAWVKELLAEHPAELAEVEAARAARLAELRAEVEAKVAA
0.49 | E18K (designed binder) MTLQELLREEALRRAEAKAFRYALELLAEKFPEQKEYLLDLAEEIESQIRSLSGVDVEDVRKFLDKEWAWVKELLAEHPAELAEVEAARAARLAELRAEVEAKVAA
0.49 | A88W (designed binder) MTLQELLREEALRRAEAEAFRYALELLAEKFPEQKEYLLDLAEEIESQIRSLSGVDVEDVRKFLDKEWAWVKELLAEHPAELAEVEAWRAARLAELRAEVEAKVAA
0.49 | K30E (designed binder) MTLQELLREEALRRAEAEAFRYALELLAEEFPEQKEYLLDLAEEIESQIRSLSGVDVEDVRKFLDKEWAWVKELLAEHPAELAEVEAARAARLAELRAEVEAKVAA
0.49 | E101I (designed binder) MTLQELLREEALRRAEAEAFRYALELLAEKFPEQKEYLLDLAEEIESQIRSLSGVDVEDVRKFLDKEWAWVKELLAEHPAELAEVEAARAARLAELRAEVIAKVAA
0.539 | L82F (designed binder) MTLQELLREEALRRAEAEAFRYALELLAEKFPEQKEYLLDLAEEIESQIRSLSGVDVEDVRKFLDKEWAWVKELLAEHPAEFAEVEAARAARLAELRAEVEAKVAA
10.4 | F20R (designed binder) MTLQELLREEALRRAEAEARRYALELLAEKFPEQKEYLLDLAEEIESQIRSLSGVDVEDVRKFLDKEWAWVKELLAEHPAELAEVEAARAARLAELRAEVEAKVAA
0.79 | L93N (designed binder) MTLQELLREEALRRAEAEAFRYALELLAEKFPEQKEYLLDLAEEIESQIRSLSGVDVEDVRKFLDKEWAWVKELLAEHPAELAEVEAARAARNAELRAEVEAKVAA
1.05 | F20I (designed binder) MTLQELLREEALRRAEAEAIRYALELLAEKFPEQKEYLLDLAEEIESQIRSLSGVDVEDVRKFLDKEWAWVKELLAEHPAELAEVEAARAARLAELRAEVEAKVAA
0.49 | A11R (designed binder) MTLQELLREERLRRAEAEAFRYALELLAEKFPEQKEYLLDLAEEIESQIRSLSGVDVEDVRKFLDKEWAWVKELLAEHPAELAEVEAARAARLAELRAEVEAKVAA
0.593 | L52T (designed binder) MTLQELLREEALRRAEAEAFRYALELLAEKFPEQKEYLLDLAEEIESQIRSTSGVDVEDVRKFLDKEWAWVKELLAEHPAELAEVEAARAARLAELRAEVEAKVAA
0.539 | A15G (designed binder) MTLQELLREEALRRGEAEAFRYALELLAEKFPEQKEYLLDLAEEIESQIRSLSGVDVEDVRKFLDKEWAWVKELLAEHPAELAEVEAARAARLAELRAEVEAKVAA
0.869 | Q34H (designed binder) MTLQELLREEALRRAEAEAFRYALELLAEKFPEHKEYLLDLAEEIESQIRSLSGVDVEDVRKFLDKEWAWVKELLAEHPAELAEVEAARAARLAELRAEVEAKVAA
0.653 | L38F (designed binder) MTLQELLREEALRRAEAEAFRYALELLAEKFPEQKEYFLDLAEEIESQIRSLSGVDVEDVRKFLDKEWAWVKELLAEHPAELAEVEAARAARLAELRAEVEAKVAA
0.49 | A91P (designed binder) MTLQELLREEALRRAEAEAFRYALELLAEKFPEQKEYLLDLAEEIESQIRSLSGVDVEDVRKFLDKEWAWVKELLAEHPAELAEVEAARAPRLAELRAEVEAKVAA
1.05 | A88Y (designed binder) MTLQELLREEALRRAEAEAFRYALELLAEKFPEQKEYLLDLAEEIESQIRSLSGVDVEDVRKFLDKEWAWVKELLAEHPAELAEVEAYRAARLAELRAEVEAKVAA
0.653 | Q34K (designed binder) MTLQELLREEALRRAEAEAFRYALELLAEKFPEKKEYLLDLAEEIESQIRSLSGVDVEDVRKFLDKEWAWVKELLAEHPAELAEVEAARAARLAELRAEVEAKVAA
0.593 | V100D (designed binder) MTLQELLREEALRRAEAEAFRYALELLAEKFPEQKEYLLDLAEEIESQIRSLSGVDVEDVRKFLDKEWAWVKELLAEHPAELAEVEAARAARLAELRAEDEAKVAA
0.49 | K66Y (designed binder) MTLQELLREEALRRAEAEAFRYALELLAEKFPEQKEYLLDLAEEIESQIRSLSGVDVEDVRKFLDYEWAWVKELLAEHPAELAEVEAARAARLAELRAEVEAKVAA
0.49 | E77Y (designed binder) MTLQELLREEALRRAEAEAFRYALELLAEKFPEQKEYLLDLAEEIESQIRSLSGVDVEDVRKFLDKEWAWVKELLAYHPAELAEVEAARAARLAELRAEVEAKVAA
0.405 | A76T (designed binder) MTLQELLREEALRRAEAEAFRYALELLAEKFPEQKEYLLDLAEEIESQIRSLSGVDVEDVRKFLDKEWAWVKELLTEHPAELAEVEAARAARLAELRAEVEAKVAA
5.31 | F20E (designed binder) MTLQELLREEALRRAEAEAERYALELLAEKFPEQKEYLLDLAEEIESQIRSLSGVDVEDVRKFLDKEWAWVKELLAEHPAELAEVEAARAARLAELRAEVEAKVAA
0.79 | A90T (designed binder) MTLQELLREEALRRAEAEAFRYALELLAEKFPEQKEYLLDLAEEIESQIRSLSGVDVEDVRKFLDKEWAWVKELLAEHPAELAEVEAARTARLAELRAEVEAKVAA
0.79 | E86H (designed binder) MTLQELLREEALRRAEAEAFRYALELLAEKFPEQKEYLLDLAEEIESQIRSLSGVDVEDVRKFLDKEWAWVKELLAEHPAELAEVHAARAARLAELRAEVEAKVAA
22.2 | Q48D (designed binder) MTLQELLREEALRRAEAEAFRYALELLAEKFPEQKEYLLDLAEEIESDIRSLSGVDVEDVRKFLDKEWAWVKELLAEHPAELAEVEAARAARLAELRAEVEAKVAA
